Changes are numbered by the printed parent chain.
B1: TetraFab 2065 (antibody)
heavy: QVQLVQSGAEVKKPGASVKVSCKVSGFSFPSSGVDWVRQAPGQGLEWLGVTKGQGSTHYNQKFQGRVTITKDTSKSTVYMELSSLRSEDTAVYYCASGERDEGFVYWGQGTLVTVSSASTKGPSVFPLAPSSKSTSGGTAALGCLVKDYFPEPVTVSWNSGALTSGVHTFPAVLQSSGLYSLSSVVTVPSSSLGTQTYICNVNHKPSNTKVDKKVEPKSCGGGGSQVQLVQSGAEVKKPGASVKVSCKVSGFSFPSSGVDWVRQAPGQGLEWLGVTKGQGSTHYNQKFQGRVTITKDTSKSTVYMELSSLRSEDTAVYYCASGERDEGFVYWGQGTLVTVSSASTKGPSVFPLAPSSKSTSGGTAALGCLVKDYFPEPVTVSWNSGALTSGVHTFPAVLQSSGLYSLSSVVTVPSSSLGTQTYICNVNHKPSNTKVDKKVEPKSCDKTHTCPPCPAPEAAGAPSVFLFPPKPKDTLMISRTPEVTCVVVDVSHEDPEVKFNWYVDGVEVHNAKTKPREEQYNSTYRVVSVLTVLHQDWLNGKEYKCKVSNKALPAPIEKTISKAKGQPREPQVYTLPPSREEMTKNQVSLTCLVKGFYPSDIAVEWESNGQPENNYKTTPPVLDSDGSFFLYSKLTVDKSRWQQGNVFSCSVMHEALHNHYTQKSLSLSPGK
light: DIQLTQSPSFLSASVGDRVTITCKASQNVGTAVAWYQQKPGKAPKLLIYAASTLQSGVPSRFSGSGSGTEFTLTISSLQPEDFATYYCQQYSSYPLTFGGGTKVEIKRTVAAPSVFIFPPSDEQLKSGTASVVCLLNNFYPREAKVQWKVDNALQSGNSQESVTEQDSKDSTYSLSSTLTLSKADYEKHKVYACEVTHQGLSSPVTKSFNRGEC
notes: TetraFab
B2: TetraFab 2069 (antibody)
heavy: B1 heavy with K52R, Q54E, K277R, Q279E
light: B1 light
notes: TetraFab
B3: TetraFab 2153 (antibody)
heavy: B1 heavy with R100Q, R325Q
light: B1 light with Q89L, Y91K
notes: TetraFab
B4: TetraFab 2154 (antibody)
heavy: B1 heavy with K52R, Q54E, R100S, D101T, K277R, Q279E, R325S, D326T
light: B1 light with Q89L, Y91K
notes: TetraFab
B5: TetraFab 2143 (antibody)
heavy: B1 heavy with K52F, G53Q, Q54E, R100W, K277F, G278Q, Q279E, R325W
light: B1 light with Q89L, Y91K
notes: TetraFab
B6: TetraFab 2066 (antibody)
heavy: B1 heavy with R100Q, R325Q
light: B1 light
notes: TetraFab
B7: TetraFab 2076 (antibody)
heavy: B1 heavy with K52L, Q54H, R100H, K277L, Q279H, R325H
light: B1 light
notes: TetraFab
B8: TetraFab 2079 (antibody)
heavy: B1 heavy with K52H, Q54S, R100S, D101T, K277H, Q279S, R325S, D326T
light: B1 light
notes: TetraFab
B9: TetraFab 2150 (antibody)
heavy: B1 heavy with R100S, D101T, R325S, D326T
light: B1 light with Q89L, Y91K
notes: TetraFab
B10: TetraFab 2075 (antibody)
heavy: B1 heavy with K52L, Q54H, R100S, D101T, K277L, Q279H, R325S, D326T
light: B1 light
notes: TetraFab
B11: TetraFab 2156 (antibody)
heavy: B1 heavy with K52R, Q54E, K277R, Q279E
light: B1 light with Q89L, Y91K
notes: TetraFab
B12: TetraFab 2142 (antibody)
heavy: B1 heavy with K52R, Q54E, R100W, K277R, Q279E, R325W
light: B1 light with Q89L, Y91K
notes: TetraFab
B13: TetraFab 2147 (antibody)
heavy: B1 heavy with K52W, Q54V, R100H, K277W, Q279V, R325H
light: B1 light with Q89L, Y91K
notes: TetraFab

What follows are binders tested against T1, human TNFR2 (human, UniProt P20333 23-461) (assay: binding to human TNFR2 CHO cells).
T1 construct: expressed on the surface of CHO cells; also called HuTNFR2; TNFRSF1B
T1 sequence: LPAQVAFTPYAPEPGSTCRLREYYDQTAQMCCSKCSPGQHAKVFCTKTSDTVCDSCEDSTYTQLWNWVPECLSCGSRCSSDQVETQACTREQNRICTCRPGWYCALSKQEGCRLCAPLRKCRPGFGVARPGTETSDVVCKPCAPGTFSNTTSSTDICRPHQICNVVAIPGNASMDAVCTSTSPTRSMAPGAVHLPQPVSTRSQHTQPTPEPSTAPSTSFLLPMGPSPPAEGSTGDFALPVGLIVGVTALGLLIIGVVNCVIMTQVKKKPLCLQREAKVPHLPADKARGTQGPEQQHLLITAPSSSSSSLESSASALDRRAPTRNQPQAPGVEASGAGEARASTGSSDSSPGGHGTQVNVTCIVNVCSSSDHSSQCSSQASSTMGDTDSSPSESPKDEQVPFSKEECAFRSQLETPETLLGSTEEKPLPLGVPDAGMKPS

Row | Binder | binding result
1 | B1 | no binding
2 | B2 | no binding
3 | B3 | no binding
4 | B4 | no binding
5 | B5 | no binding
6 | B6 | no binding
7 | B7 | no binding
8 | B8 | no binding
9 | B9 | no binding
10 | B10 | no binding
11 | B11 | no binding
12 | B12 | no binding
13 | B13 | no binding
